The source of these data is PMC7456325.

Bounds are passed on as bounds.

For orientation: Kd means a measure of binding affinity in units of concentration. The low end stands for higher affinity, the high end for lower affinity.

In this experiment the target is T. suis B ΔC26 (Trichuris suis BCL-2-like protein B, C-terminal truncation) (Trichuris suis). In words: MST; Monolith NT.115; protein labelled with NHS RED, unlabelled synthetic peptide diluted in phosphate-buffered saline; 30 min incubation; 25 °C; 40% LED and 40% MST power; three independent experiments, single binding model.

Regarding PILPEVNKTALCMRAMGEVFEDRYKT [T. suis protein B BH3 peptide], the Kd is greater than 50 µM.

As to SVRAPIRLCDAMFLMCDLFERKFHDR [T. suis protein A BH3 peptide], the Kd is greater than 50 µM.
